The target in experiment [1] is T1, soluble CD23 antigen (soluble and monomeric form) (UniProt P06734 150-321, limits assumed).
T1 construct: also called free CD23
T1 sequence (looked up): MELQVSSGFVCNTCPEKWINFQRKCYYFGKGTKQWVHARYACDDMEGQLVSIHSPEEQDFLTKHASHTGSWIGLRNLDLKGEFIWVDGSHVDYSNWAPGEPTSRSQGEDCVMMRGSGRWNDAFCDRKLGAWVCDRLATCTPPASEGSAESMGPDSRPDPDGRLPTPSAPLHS
Kind of experiment: isothermal titration calorimetry, average over temperatures. The procedure:
Isothermal titration calorimetry (ITC) accurately measures the thermodynamics of protein-protein interactions and can further provide the stoichiometry of the experimental complex. CD23, C-terminal tetravalent p5E8, p5E8 IgG and p5E8 Fab were extensively dialyzed for 12 hours against PBS. ITC experiments were performed on an iTC200 microcalorimeter (MicroCal LLC, Northampton, Mass.). After degassing, 25×1.5 μl aliquots of 100 μM CD23 were injected at 5 minute intervals into the 350-μl sample cell containing 5 μM solutions of antibody/Fab. Raw data were then integrated and fitted using a nonlinear least squares routine in ITC data analysis software ORIGIN (MicroCal LLC, Northampton, Mass.). The fitting generated values for the independent variables ΔH⁰ (binding enthalpy), N (the stoichiometry), and Kb (binding constant). For each antibody/Fab, ITC experiments were performed at 5° C., 15° C., 25° C., and 37° C. in order to determine the temperature dependence on the binding heats and to optimize the experiments to obtain better signal to noise.
The CD23 in the syringe and the antibody in the sample cell are both monomers in solution. On fitting the data, N values approximating 1, 2, and 4 would indicate binding of all available antigen binding sites for the p5E8 Fab, p5E8 IgG and the C-terminal tetravalent p5E8, respectively. […]
On the technique in general: Isothermal titration calorimetry measures the heat released or taken up as one component is titrated into another.

Experiment [2] deals with T1, soluble CD23 antigen (soluble and …). The experiment in a line: solution-phase competition Biacore, free CD23 read on an immobilised p5E8 chip; average of three titrations. The procedure: In this experiment, the concentration of free CD23 (soluble and monomeric form) in solution is determined by the initial rate of binding to a CM5 Biacore chip containing immobilized p5E8 MAb. Into these CD23 solutions were titrated the p5E8 Fab prepared by papain digestion (one potential binding site), p5E8 MAb (two potential binding sites), and the C-terminal anti-CD23 tetravalent antibody (four potential binding sites). The p5E8 Fab, MAb, and tetravalent antibody are the ligands and CD23 is the analyte being tested.
P5E8 was immobilized to 20247 RUs on a CM5 sensor chip. CD23 and CD23 plus antibody were flowed over the sensor chip at a 10 μl/min for 3 minutes. Initial binding rates were obtained from a fit to the initial linear portion of the raw sensorgram data (FIG. 23A). The N (stoichiometry) values were determined by plotting the antibody concentration against the initial rate, Vᵢ, obtained at each concentration (FIG. 23B). […] Three experiments measured the initial rates of binding of free CD23 to the p5E8 sensor chip (concentrations for CD23 ranged from 0.15 to 15 nM) in the presence of constant concentrations of antibody of 1, 2.5 and 10 nM. […] The calculated stoichiometries correspond to binding of CD23 antigen to all four available antigen binding sites for the C-terminal tetravalent p5E8.

B1: PRIMATIZED p5E8 Fab (Fab, V domains shown)
VH: EVQLVESGGGLAKPGGSLRLSCAASGFRFTFNNYYMDWVRQAPGQGLEWVSRISSSGDPTWYADSVKGRFTISRENAKNTLFLQMNSLRAEDTAVYYCASLTTGSDSWGQGVLVTVSS
VL: DIQMTQSPSSLSASVGDRVTITCRASQDIRYYLNWYQQKPGKAPKLLIYVASSLQSGVPSRFSGSGSGTEFTLTVSSLQPEDFATYYCLQVYSTPRTFGQGTKVEIKR
notes: domain: CH1
Regarding B1, the “Avg. N (stoichiometry)” value in experiment [1] is 0.99. Moreover, in experiment [2], the “N (stoichiometry, CD23 molecules bound per antibody)” value worked out at 1.05.

Source of the values: patent US20090155255A1 (Biogen, published 2009).
